The target of this assay is recombinant MBP-EDIII of DENV2 (Dengue virus 2 (strain Thailand/16681/84)). In words: SPR.
The Kd is the equilibrium constant for the complex coming apart. The koff is the first-order rate constant of dissociation. As usually defined, the kon is the second-order rate constant of association. 1A1D-2 Fab Y105R.H: the Kd was 203 nM, the off-rate constant (koff) was 0.0195 s⁻¹ and the kon came to 96200 M⁻¹ s⁻¹.

1A1D-2 Fab A54E-Y105R double mutant: the dissociation constant Kd is 12.3 nM, the koff worked out at 0.00274 s⁻¹ and the on-rate (kon) worked out at 222000 M⁻¹ s⁻¹.

Take 1A1D-2 Fab A54E.H: the Kd was determined as 41.9 nM, the koff worked out at 0.00822 s⁻¹ and the kon was found to be 197000 M⁻¹ s⁻¹.

These data come from publication PMC9027083.
